Patent publication US20240182536A1

Experiments:
[1] = target: T1, mouse IL-18 binding protein (mouse) (UniProt Q9Z0M9); assay: cell-based or functional assay
T1 sequence (looked up): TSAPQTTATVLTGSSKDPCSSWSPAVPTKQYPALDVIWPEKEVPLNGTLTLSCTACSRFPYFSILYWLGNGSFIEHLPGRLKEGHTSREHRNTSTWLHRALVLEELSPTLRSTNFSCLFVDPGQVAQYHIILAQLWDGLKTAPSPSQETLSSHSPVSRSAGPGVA

[2] = target: T2, mouse IL-18 receptors on PathHunter U2OS mIL18-NF-kb reporter cells (mouse) (UniProt Q61098); assay: cell-based or functional assay
T2 sequence (looked up) 1: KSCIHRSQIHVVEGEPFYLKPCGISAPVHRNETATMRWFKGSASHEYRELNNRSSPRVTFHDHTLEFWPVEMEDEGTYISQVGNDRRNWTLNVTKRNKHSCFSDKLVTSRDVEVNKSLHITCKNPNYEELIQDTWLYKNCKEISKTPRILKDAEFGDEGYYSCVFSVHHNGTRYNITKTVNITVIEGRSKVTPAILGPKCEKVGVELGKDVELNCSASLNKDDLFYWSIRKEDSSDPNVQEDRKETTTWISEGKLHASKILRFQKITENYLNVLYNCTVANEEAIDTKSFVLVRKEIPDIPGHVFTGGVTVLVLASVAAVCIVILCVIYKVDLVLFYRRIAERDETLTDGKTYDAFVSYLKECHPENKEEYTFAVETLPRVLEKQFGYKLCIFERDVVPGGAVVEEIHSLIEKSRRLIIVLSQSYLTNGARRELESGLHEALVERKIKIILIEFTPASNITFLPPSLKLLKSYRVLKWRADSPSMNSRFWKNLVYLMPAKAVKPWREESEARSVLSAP
T2 sequence (looked up) 2: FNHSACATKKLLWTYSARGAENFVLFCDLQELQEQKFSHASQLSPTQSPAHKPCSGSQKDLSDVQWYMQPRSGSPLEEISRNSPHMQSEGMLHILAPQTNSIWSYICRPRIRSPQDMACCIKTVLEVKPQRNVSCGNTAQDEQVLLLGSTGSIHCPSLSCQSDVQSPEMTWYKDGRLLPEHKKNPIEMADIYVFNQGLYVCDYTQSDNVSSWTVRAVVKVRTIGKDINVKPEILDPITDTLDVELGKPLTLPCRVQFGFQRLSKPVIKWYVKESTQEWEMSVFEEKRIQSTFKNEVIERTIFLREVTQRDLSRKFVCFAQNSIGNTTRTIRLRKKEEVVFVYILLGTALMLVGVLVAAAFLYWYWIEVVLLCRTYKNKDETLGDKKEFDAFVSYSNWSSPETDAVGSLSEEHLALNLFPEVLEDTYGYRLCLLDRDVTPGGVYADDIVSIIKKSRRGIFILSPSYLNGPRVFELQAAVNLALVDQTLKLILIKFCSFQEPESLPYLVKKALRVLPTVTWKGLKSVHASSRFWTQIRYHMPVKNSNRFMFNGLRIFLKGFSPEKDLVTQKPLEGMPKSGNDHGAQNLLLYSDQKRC

B1: WT mouse IL-18 (ligand, UniProt P70380 36-192, looked up)
chain: NFGRLHCTTAVIRNINDQVLFVDKRQPVFEDMTDIDQSASEPQTRLIIYMYKDSEVRGLAVTLSVKDSKMSTLSCKNKIISFEEMDPPENIDDIQSDLIFFQKRVPGHNKMEFESSLYEGHFLACQKEDDAFKLILKKKDENGDKSVMFTLTNLHQS
For B1, the mouse IL-18 reporter assay EC50, +Mouse IL-18BP 50 nM [1] was > 500 pM and the mouse IL-18 reporter assay EC50, without mouse IL-18BP [2] was 0.61 pM.
